Experimental data from patent publication US20260049151A1 (SHENGHE CHINA BIOPHARMACEUTICAL, published 2026).
Read-outs that look alike come from different tables or passages of the source.

T1: Human-TNFR2-His (human, UniProt P20333 23-257)
T1 construct: Bought protein; also called human TNFR2 protein; TNFR2 protein; not shown: His tag
T1 sequence (looked up): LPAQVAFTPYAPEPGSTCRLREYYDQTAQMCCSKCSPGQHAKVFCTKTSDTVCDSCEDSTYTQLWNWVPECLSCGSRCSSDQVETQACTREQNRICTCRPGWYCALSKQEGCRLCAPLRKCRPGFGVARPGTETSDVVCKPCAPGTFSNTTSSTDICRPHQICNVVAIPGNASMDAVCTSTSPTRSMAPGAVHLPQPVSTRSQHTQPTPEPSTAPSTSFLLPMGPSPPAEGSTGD

T2: Human TNFR2 mFc (human, UniProt P20333 23-257)
T2 construct: Bought protein; not shown: mFc
T2 sequence (looked up): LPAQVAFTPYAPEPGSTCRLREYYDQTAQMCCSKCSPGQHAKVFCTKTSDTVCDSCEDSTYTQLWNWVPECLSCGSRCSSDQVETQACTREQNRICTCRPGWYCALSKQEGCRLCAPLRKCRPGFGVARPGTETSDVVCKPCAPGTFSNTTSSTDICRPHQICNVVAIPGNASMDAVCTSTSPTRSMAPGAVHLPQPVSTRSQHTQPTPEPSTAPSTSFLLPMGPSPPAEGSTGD


Assays:
Human-TNFR2-His [1] = molecular target: T1, Human-TNFR2-His; test: ELISA: Human-TNFR2-His coated (0.1 ug/mL), antibody titrated, goat anti-human IgG Fc detection (Example 2)
Experimental: (§1) Human-TNFR2-His (manufacturer: SINO, CAT: 10417-H08H, LOT: LC15NO0412) was diluted to 0.1 μg/mL with a coating solution (1×PBS, pH7.4), and coated in 96-well ELISA plate at 100 µL/well overnight at 4° C. The coating solution was poured off. Each well was washed with 1×PBST at 300 μL, washed 4 times with a plate washer, and patted dry on a flat paper. It was blocked with 3% skim milk powder at 300 μL/well, and incubated at 37° C. for 1 h. The blocking solution was poured off, washed 4 times with a plate washer, and patted dry on a flat paper. Negative control and positive control were set up. […] The positive control and antibody were diluted to 10 μg/mL with 3% skim milk powder as the starting concentration, and then diluted by 3-fold gradient (11 gradients in total), and a blank well was set up and only the diluent was added. It was incubated at 37° C. for 1 h at 100 μL/well. The liquid in the well was discarded, washed 4 times with a plate washer, and patted dry on a flat paper. Goat anti-human IgG Fc was diluted with 3% skim milk powder at 1:10000, and incubated at 37° C. for 1 h at 100 μL/well. It was washed 6 times with a plate washer, and patted dry on a flat paper. TMB color developing solution was added at 100 μL/well, and wrapped with aluminum foil. Color development was performed at 37° C. in the dark for 8 min. Termination solution 1M HCl was added to terminate the color development reaction at 100 μL/well. Readings were taken at 450 nm on an ELISA reader.

Human 4-1BB His [2] = molecular target: T3, Human 4-1BB His (human, UniProt Q07011 24-186); test: bridging ELISA: Human TNFR2 mFc coated (0.3 ug/mL), antibody titrated, then Human 4-1BB His (0.3 ug/mL), HRP anti-His detection (Example 5)
T3 construct: Bought protein; lots 198-2146F1-W6 and 2407c-214FF1-YC; also called human 4-1BB protein; 4-1BB protein; not shown: His tag
Experimental: (§2) Human TNFR2 mFc (manufacturer: Kaixia, CAT: TN-HM3R2, LOT: 031202) was diluted to 0.3 μg/mL with a coating solution (1×PBS, pH7.4) and coated into a 96-well ELISA plate at 100 μL/well at 4° C. overnight. The coating solution was poured off. Each well was washed with 1×PBST at 300 μL, washed 4 times with a plate washer, and patted dry on a flat paper. It was blocked with 3% skim milk powder at 300 μL/well, and incubated at 37° C. for 1 h. The blocking solution was poured off, washed 4 times with a plate washer, and patted dry on a flat paper. […] Starting at 50 nM, which was used as the initial concentration for 3-fold dilution, a total of 10 gradients were diluted, and a blank well was set up and only the diluent was added. It was incubated at 37° C. for 1 h at 100 µL/well. The liquid in the well was discarded, washed 4 times with a plate washer, and patted dry on a flat paper. Human 4-1BB His (manufacturer: Acro, CAT: 41B-H5258, LOT: 198-2146F1-W6) was diluted to 0.3 μg/mL, 100 μL was added to each well, and incubated at room temperature for 1 h. The plate was washed 3 times with PBST, and then the HRP-labeled his antibody was diluted with sample diluent at 1:5000, 100 μ L was added to each well, and incubated at room temperature for 1 h. It was washed 6 times with a plate washer, and patted dry on a flat paper. TMB color developing solution was added at 100 μL/well, and wrapped with aluminum foil. Color development was performed at 37° C. in the dark for 8 min. Termination solution 1M HCl was added to terminate the color development reaction at 100 μL/well. Readings were taken at 450 nm on an ELISA reader.

Human TNFR2 mFc = molecular target: T2, Human TNFR2 mFc; test: as above
Experimental: as §2

Human 4-1BB His [3] = molecular target: T3, Human 4-1BB His; test: ELISA: Human 4-1BB His coated (0.2 ug/mL), antibody titrated, goat anti-human IgG Fc detection (Example 3)
Experimental: Human 4-1BB His (manufacturer: Acro, CAT: 41B-H5258, LOT: 198-2146F1-W6) was diluted to 0.2 μg/mL with a coating solution (1×PBS, pH7.4), and coated in 96-well ELISA plate at 100 μL/well overnight at 4° C. The coating solution was poured off. Each well was washed with 1×PBST at 300 μL, washed 4 times with a plate washer, and patted dry on a flat paper. It was blocked with 3% skim milk powder at 300 μL/well, and incubated at 37° C. for 1 h. The blocking solution was poured off, washed 4 times with a plate washer, and patted dry on a flat paper. Negative control and positive control were set up. […] The variable region of the antibody sequence of the positive control consists of SEQ ID NO: 15 and SEQ ID NO: 19, with the addition of the constant region of human IgG1 (SEQ ID NO: 46 and SEQ ID NO: 47). The positive control and antibody were diluted to 10 μg/mL with 3% skim milk powder as the starting concentration, and then diluted by 3-fold gradient (11 gradients in total), and a blank well was set up and only the diluent was added. It was incubated at 37° C. for 1 h at 100 μL/well. The liquid in the well was discarded, washed 4 times with a plate washer, and patted dry on a flat paper. Goat anti-human IgG Fc was diluted with 3% skim milk powder at 1:20000, and incubated at 37° C. for 1 h at 100 μL/well. It was washed 6 times with a plate washer, and patted dry on a flat paper. TMB color developing solution was added at 100 μL/well, and wrapped with aluminum foil. Color development was performed at 37° C. in the dark for 8 min. Termination solution 1M HCl was added to terminate the color development reaction at 100 μL/well. Readings were taken at 450 nm on an ELISA reader.

Human 4-1BB Fc = molecular target: T4, Human 4-1BB Fc (human, UniProt Q07011 24-186); test: bridging ELISA: Human 4-1BB Fc coated (0.3 ug/mL), antibody titrated, then Human-TNFR2-His (0.3 ug/mL), HRP anti-His detection (Example 4)
T4 construct: same catalogue and lot number as Human 4-1BB His; not shown: Fc
Experimental: Human 4-1BB Fc (manufacturer: Acro, CAT: 41B-H5258, LOT: 198-2146F1-W6) was diluted to 0.3 μg/mL with a coating solution (1×PBS, pH7.4) and coated into a 96-well ELISA plate at 100 µL/well at 4° C. overnight. The coating solution was poured off. Each well was washed with 1×PBST at 300 μL, washed 4 times with a plate washer, and patted dry on a flat sheet. It was blocked with 3% skim milk powder at 300 μL/well, and incubated at 37° C. for 1 h. The blocking solution was poured off, washed 4 times with a plate washer, and patted dry on a flat sheet. […] Starting at 50 nM, which was used as the initial concentration for 3-fold dilution, a total of 10 gradients were diluted, and a blank well was set up and only the diluent was added. It was incubated at 37° C. for 1 h at 100 μL/well. The liquid in the well was discarded, washed 4 times with a plate washer, and patted dry on a flat paper. Human-TNFR2-His (manufacturer: Sino, CAT: 10417-H08H, LOT: LC15NO0412) was diluted to 0.3 μg/mL, 100 μL was added to each well, and incubated at room temperature for 1 h. The plate was washed 3 times with PBST, and then the HRP-labeled his antibody was diluted with sample diluent at 1:5000, 100 μ L was added to each well, and incubated at room temperature for 1 h. It was washed 6 times with a plate washer, and patted dry on a flat paper. TMB color developing solution was added at 100 μL/well, and wrapped with aluminum foil. Color development was performed at 37° C. in the dark for 8 min. Termination solution 1M HCl was added to terminate the color development reaction at 100 μL/well. Readings were taken at 450 nm on an ELISA reader.

Human-TNFR2-His [4] = molecular target: T1, Human-TNFR2-His; test: ELISA: Human-TNFR2-His coated (0.1 ug/mL), antibody titrated, goat anti-human IgG Fc detection (Example 2); remark: listed apart in the source
Experimental: as §1

T3 sequence (Q07011 24-186 limits assumed): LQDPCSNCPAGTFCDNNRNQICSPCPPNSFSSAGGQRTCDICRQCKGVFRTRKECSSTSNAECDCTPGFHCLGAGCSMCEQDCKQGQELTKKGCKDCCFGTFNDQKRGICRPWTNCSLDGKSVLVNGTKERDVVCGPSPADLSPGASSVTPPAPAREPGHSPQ
T4 sequence (Q07011 24-186 limits assumed): as above

binding result (Human-TNFR2-His [1]) | binding result (Human 4-1BB His [2]) | binding result (Human TNFR2 mFc) | EC50 (read off the curve) (Human-TNFR2-His [1]) | EC50 (read off the curve) (Human 4-1BB His [3]) | EC50 (read off the curve) (Human 4-1BB Fc) | EC50 (read off the curve) (Human TNFR2 mFc) | binding result (Human-TNFR2-His [4]) | Binder
binds | binds | binds | – | – | – | – | – | Antibody D (bispecific antibody, human IgG1, kappa, IgG1 subtype; full-length 4-1BB antibody with TNFR2 scFv at the N-terminus of the light chains) light: EVQLVQSGAEVKKPGATVKISCKVSGYSITDYLLHWVQQAPGKCLEWMGWIDPEDAKTKYGQKFQSRVTITADTSTDTAYMELSSLRSEDTAVYYCAANSGTGTMDAWGQGTLVTVSSGGGGSGGGGSGGGGSDIVMTQSPATLSVSPGERATLSCKASQNVGSNVDWYQQKPGQSPRVLIYKASIRYTGIPARFSGSGSGTEFTLTISILQSEDFAVYFCMQSKSYPITFGCGTKLEIKGGGGSGGGGSGGGGSDIQMTQSPSSLSASLGDRVTISCSASQGISNYLNWYQQKPDGTVKLLIYYTSTLHSGVPSRFSGSGSGTDYTLTISSLQPEDIATYYCQQYSKLPWTFGGGTKLEIKRTVAAPSVFIFPPSDEQLKSGTASVVCLLNNFYPREAKVQWKVDNALQSGNSQESVTEQDSKDSTYSLSSTLTLSKADYEKHKVYACEVTHQGLSSPVTKSFNRGEC heavy: not shown
– | – | – | ~0.08 nM | ~0.3 nM | ~0.4 nM | ~0.2 nM | – | Antibody F (bispecific antibody, human IgG1, kappa, IgG1 subtype; full-length TNFR2 antibody with 4-1BB scFv at the C-terminus of the light chains) light: DIVMTQSPATLSVSPGERATLSCKASQNVGSNVDWYQQKPGQSPRVLIYKASIRYTGIPARFSGSGSGTEFTLTISILQSEDFAVYFCMQSKSYPITFGQGTKLEIKRTVAAPSVFIFPPSDEQLKSGTASVVCLLNNFYPREAKVQWKVDNALQSGNSQESVTEQDSKDSTYSLSSTLTLSKADYEKHKVYACEVTHQGLSSPVTKSFNRGECGGGGSGGGGSQVQLQESGPGLVKPSETLSLTCTVSGSSLTSYGVHWVRQPPGKCLEGLGVIWPGGSTNYNSALMSRVTISKDNSKSQVSLKMSSLTAADTAVYYCARVTGTWYFDVWGQGTTVTVSSGGGGSGGGGSGGGGSDIQMTQSPSSLSASLGDRVTISCSASQGISNYLNWYQQKPDGTVKLLIYYTSTLHSGVPSRFSGSGSGTDYTLTISSLQPEDIATYYCQQYSKLPWTFGCGTKLEIK heavy: not shown
– | binds | binds | – | – | – | – | binds | Antibody B (bispecific antibody, human IgG1, kappa, IgG1 subtype; full-length 4-1BB antibody with TNFR2 scFv at the C-terminus of the light chains) light: DIQMTQSPSSLSASLGDRVTISCSASQGISNYLNWYQQKPDGTVKLLIYYTSTLHSGVPSRFSGSGSGTDYTLTISSLQPEDIATYYCQQYSKLPWTFGGGTKLEIKRTVAAPSVFIFPPSDEQLKSGTASVVCLLNNFYPREAKVQWKVDNALQSGNSQESVTEQDSKDSTYSLSSTLTLSKADYEKHKVYACEVTHQGLSSPVTKSFNRGECGGGGSGGGGSEVQLVQSGAEVKKPGATVKISCKVSGYSITDYLLHWVQQAPGKCLEWMGWIDPEDAKTKYGQKFQSRVTITADTSTDTAYMELSSLRSEDTAVYYCAANSGTGTMDAWGQGTLVTVSSGGGGSGGGGSGGGGSDIVMTQSPATLSVSPGERATLSCKASQNVGSNVDWYQQKPGQSPRVLIYKASIRYTGIPARFSGSGSGTEFTLTISILQSEDFAVYFCMQSKSYPITFGCGTKLEIK heavy: not shown
